In article PMC9482650, “Quantitative fragmentomics allow affinity mapping of interactomes” (Nature Communications, 2022):

T1: APBA3_2, O96018
T1 sequence (O96018 480-570, limits assumed, looked up): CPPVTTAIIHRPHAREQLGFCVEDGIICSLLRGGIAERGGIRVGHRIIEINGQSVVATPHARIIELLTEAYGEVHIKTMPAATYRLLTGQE

T2: GIPC1, O14908
T2 sequence (O14908 128-223, limits assumed, looked up): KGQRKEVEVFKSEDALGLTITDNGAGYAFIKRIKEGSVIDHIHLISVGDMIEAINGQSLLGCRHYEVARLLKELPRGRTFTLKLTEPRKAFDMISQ

T3: GRIP1_1, Q9Y3R0
T3 sequence (Q9Y3R0 48-146, limits assumed, looked up): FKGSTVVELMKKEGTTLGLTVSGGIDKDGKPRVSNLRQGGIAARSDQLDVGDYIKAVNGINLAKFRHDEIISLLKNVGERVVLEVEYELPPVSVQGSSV

T4: MPDZ_13, O75970
T4 sequence (O75970 1982-2070, limits assumed, looked up): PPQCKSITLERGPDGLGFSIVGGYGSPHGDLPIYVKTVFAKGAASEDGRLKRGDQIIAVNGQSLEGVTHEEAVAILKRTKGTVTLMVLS

T5: MPDZ_2, O75970
T5 sequence (O75970 252-347, limits assumed, looked up): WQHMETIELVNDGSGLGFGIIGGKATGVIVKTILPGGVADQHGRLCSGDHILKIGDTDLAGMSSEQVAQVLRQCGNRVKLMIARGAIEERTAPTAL

T6: MPP1, Q00013
T6 sequence (Q00013 66-162, limits assumed, looked up): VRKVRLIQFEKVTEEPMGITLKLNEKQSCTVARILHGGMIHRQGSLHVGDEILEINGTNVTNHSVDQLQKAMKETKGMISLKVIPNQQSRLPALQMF

T7: NHERF1_1, O14745
T7 sequence (O14745 9-104, limits assumed, looked up): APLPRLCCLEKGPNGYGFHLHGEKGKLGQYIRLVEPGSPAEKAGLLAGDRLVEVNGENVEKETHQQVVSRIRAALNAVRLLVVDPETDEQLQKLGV

T8: PDZD2_3, O15018
T8 sequence (O15018 581-682, limits assumed, looked up): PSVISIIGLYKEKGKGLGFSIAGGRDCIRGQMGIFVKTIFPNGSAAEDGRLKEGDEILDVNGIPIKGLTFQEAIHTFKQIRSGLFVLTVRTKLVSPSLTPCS

T9: PDZD2_5, O15018
T9 sequence (O15018 2617-2716, limits assumed, looked up): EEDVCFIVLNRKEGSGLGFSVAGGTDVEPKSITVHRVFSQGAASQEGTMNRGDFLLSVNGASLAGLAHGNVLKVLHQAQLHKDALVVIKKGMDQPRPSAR

T10: PDZD7_2, Q9H5P4
T10 sequence (Q9H5P4 205-303, limits assumed, looked up): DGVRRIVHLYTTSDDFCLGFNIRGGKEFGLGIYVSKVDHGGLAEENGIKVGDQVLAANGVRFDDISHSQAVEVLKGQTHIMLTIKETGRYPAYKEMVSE

T11: PDZRN3_2, Q9UPQ7
T11 sequence (Q9UPQ7 414-513, limits assumed, looked up): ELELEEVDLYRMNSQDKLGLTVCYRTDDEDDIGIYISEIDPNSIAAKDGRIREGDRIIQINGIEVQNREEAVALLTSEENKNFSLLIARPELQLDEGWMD

T12: SHROOM3, Q8TF72
T12 sequence (Q8TF72 20-120, limits assumed, looked up): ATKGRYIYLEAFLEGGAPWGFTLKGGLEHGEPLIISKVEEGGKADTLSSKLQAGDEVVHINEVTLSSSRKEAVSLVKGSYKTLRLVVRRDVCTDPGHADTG

T13: SHROOM4, Q9ULL8
T13 sequence (Q9ULL8 5-102, limits assumed, looked up): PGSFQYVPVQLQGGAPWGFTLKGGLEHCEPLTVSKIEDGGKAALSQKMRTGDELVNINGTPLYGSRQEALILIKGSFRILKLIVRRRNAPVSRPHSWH

T14: TJP3_2, O95049
T14 sequence (O95049 190-282, limits assumed, looked up): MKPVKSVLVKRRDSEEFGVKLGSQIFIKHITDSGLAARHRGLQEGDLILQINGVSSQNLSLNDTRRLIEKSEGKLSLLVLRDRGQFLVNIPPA

T15: USH1C_3, Q9Y6N9
T15 sequence (Q9Y6N9 447-547, limits assumed, looked up): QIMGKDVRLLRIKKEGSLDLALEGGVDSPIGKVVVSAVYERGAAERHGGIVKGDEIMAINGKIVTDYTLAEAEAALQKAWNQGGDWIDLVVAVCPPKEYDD

B1: ASIC3, Q9UHC3 (peptide)
chain: HRTCYLVTQL
B2: HPV51-E6, P26554 (peptide)
chain: RTRQRNETQV

Columns and labels:
Experiment in all cases: holdup assay
Set-up in all cases: key: below the threshold = too weak to quantify, mostly under pKd 3.1 to 4
Settings in all cases: plain residues with an end cap or a label only (N-terminal biotin on a linker: ttds)
APBA3_2, O96018 = biological target: T1, APBA3_2, O96018
DVL2, O14641 = biological target: DVL2, O14641
DVL2, O14641, sequence (O14641 260-359): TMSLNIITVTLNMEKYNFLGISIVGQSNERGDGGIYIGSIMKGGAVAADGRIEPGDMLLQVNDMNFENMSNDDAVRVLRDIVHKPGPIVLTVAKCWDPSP

GIPC1, O14908 = biological target: T2, GIPC1, O14908
GRIP1_1, Q9Y3R0 = biological target: T3, GRIP1_1, Q9Y3R0
LMO7, Q8WWI1 = biological target: LMO7, Q8WWI1
LMO7, Q8WWI1, sequence (Q8WWI1 1037-1138): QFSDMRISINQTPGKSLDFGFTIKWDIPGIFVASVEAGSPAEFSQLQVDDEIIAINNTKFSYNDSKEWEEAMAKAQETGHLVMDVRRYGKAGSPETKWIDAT

MPDZ_13, O75970 = biological target: T4, MPDZ_13, O75970
MPDZ_2, O75970 = biological target: T5, MPDZ_2, O75970
MPP1, Q00013 = biological target: T6, MPP1, Q00013
NHERF1_1, O14745 = biological target: T7, NHERF1_1, O14745
PARD3_1, Q8TEW0 = biological target: PARD3_1, Q8TEW0
PARD3_1, Q8TEW0, sequence (Q8TEW0 264-372): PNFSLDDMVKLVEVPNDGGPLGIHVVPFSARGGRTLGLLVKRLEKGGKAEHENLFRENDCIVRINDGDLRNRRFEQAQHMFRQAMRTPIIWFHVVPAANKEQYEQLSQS

PDZD2_3, O15018 = biological target: T8, PDZD2_3, O15018
PDZD2_5, O15018 = biological target: T9, PDZD2_5, O15018
PDZD7_2, Q9H5P4 = biological target: T10, PDZD7_2, Q9H5P4
PDZD9, Q8IXQ8 = biological target: PDZD9, Q8IXQ8
PDZD9, Q8IXQ8, sequence (Q8IXQ8 23-120): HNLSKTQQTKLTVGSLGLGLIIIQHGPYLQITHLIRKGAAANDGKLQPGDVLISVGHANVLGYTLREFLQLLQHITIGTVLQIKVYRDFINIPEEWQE

PDZRN3_2, Q9UPQ7 = biological target: T11, PDZRN3_2, Q9UPQ7
PDZRN4_2, Q6ZMN7 = biological target: PDZRN4_2, Q6ZMN7
PDZRN4_2, Q6ZMN7, sequence (Q6ZMN7 389-498): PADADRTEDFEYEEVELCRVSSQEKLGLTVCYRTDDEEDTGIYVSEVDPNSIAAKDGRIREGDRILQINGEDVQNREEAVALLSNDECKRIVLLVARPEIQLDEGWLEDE

PREX1_1, Q8TCU6 = biological target: PREX1_1, Q8TCU6
PREX1_1, Q8TCU6, sequence (Q8TCU6 608-718): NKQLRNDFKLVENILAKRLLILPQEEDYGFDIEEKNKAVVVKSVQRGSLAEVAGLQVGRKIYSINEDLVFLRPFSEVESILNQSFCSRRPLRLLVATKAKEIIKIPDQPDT

SHROOM3, Q8TF72 = biological target: T12, SHROOM3, Q8TF72
SHROOM4, Q9ULL8 = biological target: T13, SHROOM4, Q9ULL8
TJP1_1, Q07157 = biological target: TJP1_1, Q07157
TJP1_1, Q07157, sequence (Q07157 18-120): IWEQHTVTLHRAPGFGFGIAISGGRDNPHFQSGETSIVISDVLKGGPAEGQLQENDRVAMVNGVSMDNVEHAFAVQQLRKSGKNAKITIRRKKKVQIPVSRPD

TJP3_2, O95049 = biological target: T14, TJP3_2, O95049
USH1C_3, Q9Y6N9 = biological target: T15, USH1C_3, Q9Y6N9

| Binder | pKd (APBA3_2, O96018) | pKd (DVL2, O14641) | pKd (GIPC1, O14908) | pKd (GRIP1_1, Q9Y3R0) | pKd (LMO7, Q8WWI1) | pKd (MPDZ_13, O75970) | pKd (MPDZ_2, O75970) | pKd (MPP1, Q00013) | pKd (NHERF1_1, O14745) | pKd (PARD3_1, Q8TEW0) | pKd (PDZD2_3, O15018) | pKd (PDZD2_5, O15018) | pKd (PDZD7_2, Q9H5P4) | pKd (PDZD9, Q8IXQ8) | pKd (PDZRN3_2, Q9UPQ7) | pKd (PDZRN4_2, Q6ZMN7) | pKd (PREX1_1, Q8TCU6) | pKd (SHROOM3, Q8TF72) | pKd (SHROOM4, Q9ULL8) | pKd (TJP1_1, Q07157) | other results |
| --- | --- | --- | --- | --- | --- | --- | --- | --- | --- | --- | --- | --- | --- | --- | --- | --- | --- | --- | --- | --- | --- |
| B1 | below the threshold | below the threshold | below the threshold | 4.31 | below the threshold | below the threshold | below the threshold | 4.4 | 5.23 | below the threshold | below the threshold | below the threshold | below the threshold | below the threshold | below the threshold | below the threshold | 3.99 | below the threshold | below the threshold | 4.17 | pKd (TJP3_2, O95049): below the threshold; pKd (USH1C_3, Q9Y6N9): below the threshold |
| B2 | below the threshold | 4.59 | 5.1 | below the threshold | below the threshold | below the threshold | below the threshold | 5.81 | below the threshold | below the threshold | 4.22 | below the threshold | below the threshold | below the threshold | 4.16 | below the threshold | below the threshold | below the threshold | below the threshold | below the threshold | pKd (TJP3_2, O95049): below the threshold; pKd (USH1C_3, Q9Y6N9): 4.16 |
